{
  "source": "paper PMC7347389",
  "biological_target": "Cys109 (UniProt position 128, ADAGFCYPPET)",
  "experiment": "NMR",
  "conditions": "25 °C (general NMR condition 'unless stated otherwise'; not stated specifically for the pH series); reduced nDsbD (C103 and C109 as thiols), isolated domain, folded, cap loop closed",
  "data": [
    {"substance": "Thiol:disulfide interchange protein DsbD, N-terminal domain (nDsbD) (Escherichia coli)", "values": [
      {"measurement": "pKa", "value": "above 11"}
    ]}
  ]
}
